Here are results for three substances from patent US20070207967A1, “Peptide Inhibitors of Matrix Metalloproteinase Activity” (CTT CANCER TARGETING TECHNOLOGIES OY, priority 2004, published 2007).

The subject of test [1] is β5 integrin-transfected CS-1 melanoma cells. The test is described as follows: 125I-C domain binding to cells. The following applies: unlabelled proteins 50 μg/ml, peptides 50 μM. Format: cell-based, hamster. As for the experimental part: ^125I-C domain binding to cells. The MMP-9 C domain was labelled with ^125I to a specific activity 0.06 μCi/pmol. The labelled domain retained 40% of the CRV peptide-binding activity as shown by the phage-binding assay. […] After a preincubation of 1.5×10^6 cells in a 200 μl volume on ice for 30 min with the competitors, ^125I-labelled C domain (1×10^6 cpm) was added and incubated for three hours on ice. The cells were transferred to tubes containing 200 μl of dibutyl phthalate/cyclohexane mixture (23:2 vol/vol), centrifuged 7500×g for 10 minutes and snap-frozen (24). The bottom of the tube containing the cells were cut and analyzed with a gamma-counter.

Test [2] concerns the target T1, αM integrin I domain (Homo sapiens, UniProt P11215). Briefly: Pro-MMP-9 binding to αM integrin I domain. As for the experimental part:
Pro-MMP-9 and gelatin binding to leukocyte αM integrin. Pro-MMP-9 binding to the αM I domain in the presence of peptides was studied as described (12). Gelatin binding to the pro-MMP-^9/αMβ2 integrin complex was studied by immobilizing the integrin αMβ2 (12) or αIIbβ3 as a control (Enzyme Research Laboratories, South Bend, Ind.) (1 μg/well) in TBS/1 mM CaCl2/1 mM MgCl2 followed by saturation of the wells with 1% BSA in PB ST. Pro-MMP-9 (100 ng/well) was incubated for 2 h and the unbound pro-MMP-9 was washed away. Biotinylated gelatin (2.5 μg/ml) was allowed to bind for 30 min at room temperature. Bound gelatin was detected with streptavidin-peroxidase.

The target of test [3] is T2, pro-MMP-9 (Homo sapiens, UniProt P14780). The test is described as follows: Pro-MMP-9 activation in THP-1 cells, zymography. The format is cell-based. The following applies: THP-1, pro-MMP-3 and plasminogen, peptides 200 μM. The procedure: Activation of MMP-9. THP-1 cells (40 000/100 μl) or confluent HT1080 cells were incubated for 16 h in the presence or absence of 2.5 μg/ml plasminogen, 0.5 μg/ml pro-MMP-3 (Oncogene Research Products), 40 nM PDBu, and the peptides at a 200 μM concentration unless otherwise indicated. Aliquots of the conditioned media were analyzed by gelatin zymography (9). […] The samples were analyzed by gelatin zymography.

Test [4] concerns the target T1, αM integrin I domain. As to conditions: ref (12); cited from earlier work.
In the next test the test system is leukocytes. The following applies: ref (12); cited from earlier work.
In another test the test system is neutrophil recruitment. The following applies: acute inflammation model in mice; ref (48); cited from earlier work.
Test [5] has as its target T2, pro-MMP-9. The test is described as follows: Phage binding to pro-MMP-9 with competitors. As to conditions: competitor peptides 20 μM, gelatin 2.5 μg/ml, TIMP-1 2.5 μg/ml. As for the experimental part: (§1) Phage display. Phage display selections were made using random peptide libraries CX7-10C and X9-10 (13). Purified human pro-MMP-9 (9) or recombinant MMP-9 C domain (2 μg/ml) was immobilized on microtiter wells and the wells were blocked with BSA. The phage were added in 50 mM Hepes (pH 7.5)/5 mM CaCl2/1 μM ZnCl2/150 mM NaCl/2% BSA. After three rounds of selection the phage sequences were determined (14). The phage binding specificity was tested with pro-MMPs or the recombinant domains (20 ng/well). The phage (10^8 transducing units/well) were allowed to bind in the absence or presence of competitor peptides (20 μM), gelatin (2.5 μg/ml) or TIMP-1 (2.5 μg/ml, Calbiochem) followed by washings with PBS/0.05% Tween20 (PBST). The phage were detected with a peroxidase-conjugated anti-phage antibody (Amersham Biosciences).

The target in the next test is T3, MMP-9 C domain (Homo sapiens, UniProt P14780).
T3 construct: MMP-9 (Asp^494-Asp^688) were expressed as described (16); made in house; host or cells: E. coli (β5 fragment)
T3 sequence (P14780 513-707 limits assumed): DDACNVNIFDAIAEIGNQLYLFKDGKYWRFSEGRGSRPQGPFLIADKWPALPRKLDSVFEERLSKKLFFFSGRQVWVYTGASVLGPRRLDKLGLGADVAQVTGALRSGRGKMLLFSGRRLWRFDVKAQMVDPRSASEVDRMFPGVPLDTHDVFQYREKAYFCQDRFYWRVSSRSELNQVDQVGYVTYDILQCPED
The test is described as follows: CRV phage binding to recombinant MMP-9 C domain. The following applies: TIMP-1 2.5 μg/ml. As for the experimental part: as §1
Expression of the MMP and integrin domains. CBD (amino acids Gly^204-Gly^373) was amplified from MMP-9 cDNA with the oligonucleotides 5′-[…]-3′ and 5′-[…]-3′ incorporating NdeI and PstI restriction sites. The PCR product was ligated into pTWIN vector (New England Biolabs). CBD was expressed in E. coli and purified using gelatin-sepharose (Amersham Biosciences). For some experiments, CBD was biotinylated with sulfo-NHS-LC-biotin (Pierce). The C-terminal domains of MMP-2 (Glu^438-Cys^631) and MMP-9 (Asp^494-Asp^688) were expressed as described (16). […]

T1 sequence (P11215 150-328 limits assumed): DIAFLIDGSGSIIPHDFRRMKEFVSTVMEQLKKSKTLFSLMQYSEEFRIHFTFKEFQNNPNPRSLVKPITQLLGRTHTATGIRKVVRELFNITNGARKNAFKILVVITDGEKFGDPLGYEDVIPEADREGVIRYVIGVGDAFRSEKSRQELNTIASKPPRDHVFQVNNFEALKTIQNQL
T2 sequence (P14780 20-707 limits assumed): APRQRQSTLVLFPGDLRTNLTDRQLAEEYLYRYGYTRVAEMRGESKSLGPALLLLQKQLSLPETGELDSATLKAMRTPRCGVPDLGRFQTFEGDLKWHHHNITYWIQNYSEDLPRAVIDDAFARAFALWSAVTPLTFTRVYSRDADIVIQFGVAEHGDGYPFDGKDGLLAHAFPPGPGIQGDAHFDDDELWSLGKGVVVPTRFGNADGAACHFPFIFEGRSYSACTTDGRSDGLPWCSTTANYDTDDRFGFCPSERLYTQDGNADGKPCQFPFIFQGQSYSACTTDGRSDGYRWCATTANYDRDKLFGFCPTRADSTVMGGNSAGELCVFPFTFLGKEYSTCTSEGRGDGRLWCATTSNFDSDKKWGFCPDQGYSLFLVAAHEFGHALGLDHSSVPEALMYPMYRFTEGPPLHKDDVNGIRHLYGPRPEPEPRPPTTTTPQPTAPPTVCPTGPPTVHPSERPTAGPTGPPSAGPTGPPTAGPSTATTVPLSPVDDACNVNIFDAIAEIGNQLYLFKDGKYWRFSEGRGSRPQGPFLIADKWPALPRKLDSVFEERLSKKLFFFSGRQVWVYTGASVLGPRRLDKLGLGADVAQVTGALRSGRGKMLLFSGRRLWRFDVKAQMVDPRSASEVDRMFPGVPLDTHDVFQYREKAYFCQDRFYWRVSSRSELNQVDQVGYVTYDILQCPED

Regarding GRGDSP [reference compound], in test [1], the “Competition of 125I-labelled MMP-9 C domain binding to β5 integrin-transfected CS-1 cells” value is given as “No competition”.

For the substance ADGACILWMDDGWCGAAG, in the test with αM integrin I domain [2], the “Effect on interaction of MMP-9 with the leukocyte αM integrin I domain” value is given as “blocked”. Moreover, the “Effect on pro-MMP-9 activation” value with pro-MMP-9 [3] is recorded as “augmented”. Also, the “Competition with pro-MMP-9 binding to I domain of αM integrin subunit” value with αM integrin I domain [4] is on record as “competed”. Further, the “Inhibition of migration of leukocytes” value in the test on leukocytes is “inhibited migration of leukocytes”. For the same substance, the “Inhibition of neutrophil recruitment” value in the test with neutrophil recruitment is reported as “active in vivo inhibiting neutrophil recruitment”.

Turning to “TIMP-1: tissue inhibitor of MMPs (Calbiochem)”, the “Binding of the CRV-phage to pro-MMP-9, competition” value with pro-MMP-9 [5] was “could not compete”. The “CRV phage binding to the MMP-9 C domain, competition” value with MMP-9 C domain is “could not compete”.
